Publication PMC4620370 (Journal of Gynecologic Oncology, 2015)
No end group written: not given here. *: point of attachment. FITC = O=C1OC2(c3ccc(O)cc3Oc3cc(O)ccc32)c2ccc(NC(=S)*)cc21; Ahx = NCCCCCC(=O)O

How the values were obtained:
[1] = system: VEGFR-3 in ovarian carcinoma tissue sections; set-up: species or system human; details: FITC-tagged peptide, overnight at 4℃, confocal laser scanning fluorescence microscopy; Fig. 5B, D
[2] = system: SKOV3 ovarian cancer cells (tumor-bearing mice); assay: In vivo targeting of 99mTc-labeled peptide to ovarian tumors; set-up: species or system Balb/c-nu mice; details: ~3,700 kBq ^99mTc/100 µg peptide, n=6
[3] = cited from earlier work
[4] = system: rhVEGFR-3; assay: Phage screening; format: binding, human; details: negative peptide used as immunofluorescence control

Substance: FITC-(aminohexanoic, AHX)-WHWLPNLRHYAS [FITC-tagged peptide III]
- interaction with VEGFR-3 (immunofluorescence) [1]: could interact with VEGFR-3

Substance: NHS-MAG3-SHSWHWLPNLRHYAS [^99mTc-labeled peptide]
- time of peak radioactivity from ovarian tumor cells after tail vein injection [2]: 3 h

Substance: bevacizumab: a monoclonal antibody specific for VEGF
- serious adverse events associated [3]: venous thromboembolism, hypertension, proteinuria, arterial thrombosis, bleeding, and gastrointestinal perforation
- risk of fatal adverse events ([3]; meta-analysis that included 34 trials): increased

Substance: {FITC-Ahx}-WHNSLKANYTWG [FITC-labeled negative peptide]
- binding in the phage screening procedure [4]: negative binding
